Results from US20250134019A1, “TRIKETONE DIOXYGENASE VARIANTS FOR HERBICIDE TOLERANCE” (Monsanto Technology LLC, priority 2022, published 2025).
Residue numbers refer to the chain shown, from its start. Numbers in names are those of the source.

Experiments:
Assay type in all cases: in vivo
[1] = tested on: transgenic soybean plants; test: Mesotrione injury of R0 transgenic soybean plants expressing TDO homologs; settings: 210 g a.i./ha mesotrione at V3-V4, rated 7-14 days after treatment, mean of all tested events
Description: Plant expression vectors comprising the selected TDO homologs under the control of one of two constitutive promoters were transformed into soybean via an Agrobacterium tumefaciens-mediated method. Following Agrobacterium transformation, R0 transgenic soybean plants containing a single copy of the transgene were identified through molecular characterization and segregation analysis. Transgenic and wild-type (control) plants were grown in 6-inch pots filled with BM7 soilless mix in a growth chamber under the conditions of 28° C./23° C. (light/dark) and a 16 hr light/8 hr dark photoperiod. Plants were fertilized with 15-5-15 liquid fertilizer at the V3-V4 growth stage and treated with 210 g a.i./ha mesotrione (1X=105 g a.i./ha; Callisto®, Syngenta in 1% crop oil). Plants were visually rated 7-14 days after treatment on a scale of 0% to 100%, with 0%=no injury and 100%=plant death, relative to the wild-type controls. The results summarized in Table 2 represent the mean of all tested events (10-15) for each construct.

transgenic cotton plants = test: Mesotrione treatment of cotton plants expressing TDO variants, crop injury; settings: for Crop Injury (%), 210 g/ha (2X) Mesotrione / Crop Injury (%), 840 g/ha (8X) Mesotrione: R2 cotton sprayed at V3
Description: Cotton is a crop of interest that is often exposed to high temperature growing conditions and thus, selected TDO variants were tested in cotton. Three TDO variants, D08, TDO_6, and TDO_8 were transformed into cotton (along with the Os.TDO control) using similar expression elements in single-cassette vectors or as part of multi-cassette vectors. R2 transgenic cotton plants were then screened for tolerance to mesotrione. Sixteen plants from two events each per construct were sprayed with two rates (2X and 8X) of mesotrione at V3 stage under normal (80° F.) and hot (100° F.) growing conditions. In addition, the effect of heat treatment on TDO accumulation in cotton plants were measured by ELISA. Cotton plants were planted and grown under normal greenhouse conditions (80° F. day/70° F. night) until V3 growth stage. Half of the plants were then moved to a higher temperature growth chamber (100° F. day/82° F. night) for the heat treatment, whereas the remaining half of the plants stayed in the same greenhouse (80° F. day/70° F. night). At day 3 after the plants were placed under different temperature conditions, leaf samples were collected for TDO protein measurement. The plants in 100° F. growth chamber and in 80° F. greenhouse were both sprayed with 2X mesotrione (210 g a.i./ha). Leaf samples were collected again 7 days after mesotrione treatment (DAT: Days After Treatment) for protein assay. Table 5 compares protein levels of the TDO variants in transgenic cotton plants grown under the two tested conditions. The protein levels for the TDO variants were measured at three time points for plants: 1) just before entering the high temperature treatment, 2) three days following placement into control (normal growth temperature) or high temperature (100° F.), and 3) 7 days after a 2X mesotrione spray.

[2] = tested on: transgenic soybean plants; test: Response of R0 soybean plants transformed with Round 2 TDO variants to mesotrione; settings: R0 transgenic soybean sprayed with mesotrione
Text: The next set of experiments was focused on determining if the balance between improved enzyme stability could outweigh a reduction in activity observed at optimal temperatures in soybean plants. […] To test this hypothesis, the eight variants from Round 2 biochemical analysis described in the preceding paragraph were transformed into soybean through Agrobacterium-mediated transformation, along with three controls. One of the controls (TDO_9) was a variant from the high-throughput screens that had poor activity. Two other controls were the D08 variant and the Os.TDO. R0 transgenic soybean plants were sprayed with the mesotrione herbicide to screen for herbicide tolerance. […] These included the Os.TDO control, the D08 variant and one Round 2 variant. The plants were scored for percent injury as described in the previous examples.

[3] = promoter Constitutive 2, 3' UTR B

B1: Ta.TDO: TDO homolog from Triticum aestivum, SEQ ID NO:10 (A4S from codon optimization) (protein, listed as Triticum aestivum)
chain: MASSDESPMVRPTVQELASAGVEEPPRQYVLPEQDRHGDLLAADEFPEPIPLIDLSRLTDADEAERLRAALQTWGFFLATNHGIEGSLMDAMMSVSREFFRQPAEEKQKCSNLVDGNGKDYQVEGYGSDKVVSEDQVLNWSDRLHLRVEPEDERNFAKWPSHPESFRDVLKEYASRTKEIRDLVLRSIAKLLEIDEDYFVNQISNKASGFARFNYYPPCPRPDLVLGLRAHSDGGLLTILFNDDTVGGLQVQRDGRWYNVSAKPHTLLINLADCLEIMNNGIFTSPIHRVVTNIKKDRLSLAVFYAVDAETMLEPAPGLLDDKRPPRYRKMLAKDFVAGLFEHFRQGKRFINTLKI
- % Injury [1, 3]: 50%

B2: Si.TDO: TDO homolog from Setaria italica, SEQ ID NO:8 (protein, listed as Setaria italica)
chain: MANESWKIPMLVQELAAKVQEPPSRYVQPEQQHPVSLVVGAEKPEAIPVIDLSRLLAADGADEEGSKLRLALQSWGLFLIDNHGIETSLMDDLINASREFFHLPLEEKQKCSNLIDGKHYQVEGYGNDPVASKDQILDWLDRLHLRVEPEDERNLVHWPEHPNSFRALLHKYTLNCKRIKDRILWAMAKSLGLDEDYIVAQFSGKAPSFARFNYYPPCPRPDIVFGAKPHSDGGVLTILLMDKDVGGLQVLRDGVWHNVPTSPHRLLVNIGDFSEIMSNGIFKSPVHRVVTNMGKERISLAMFHGLDPEKEIEPATALLHEKQLARYRKIKAKVYLAGFYEHFCRGTRFIDSEDLREVA
- % Injury ([1]; promoter Constitutive 1, 3' UTR A): 35%

B3: Cl.Col.TDO1: TDO homolog from Coix lacryma-jobi, SEQ ID NO:14 (protein)
chain: MASSSWKVPTPVQELAATLEEPPSRYVLREKDRPSSPLVADDMPEPLPVINLSRLSEDAAEAAKLEAALQSWGLVLVTNHGIETSLMDDVMDTSREFFNQTLEEKQKYSNLIEGKRFQMEGYGNDRVSTEHQILNWNDRLHLKVAPDDERNYTHWPKHPESFRDVLHEYTLKTKKIRDNICSNGQDIGARFNYYPPCPRPDLVNGVQPHSDAGVLTILLVDKEIRGLQVQRDGIWYNVPRKPYTLLINLGDVMEIMSNGIFKSPVHRVVTNTEKERISLAMFYGVDAENVLEPAAGLLDEKRPARYRKVEITDFVAGVHEHFSRGTRFIESLKI
modifications: Coix lacryma-jobi
- % Injury [1, 3]: 61%

B4: Cl.Col.TDO2: TDO homolog from Coix lacryma-jobi, SEQ ID NO:16 (protein)
chain: MASSSWRVPTPVQELAAGVVEPPSQFVLQEQDRPESLLLATDMPEPIPVIDLSRLAAADEASKLRSALQTWGLFLVTNHGIEASLMDDVMAASRDFFYQPLEEKQKYSNLVGGKRFQMEGYGNDMVASQDQVLDWQDRLQLRVEPEDERNLAYWPKHPDSFRDLLHEYASKTKKVRDNVLQAMGKLLELGEDYFISQIGGKASAIARFNYYPPCPRPELVFGIKPHSDGGAVTILLVDNDVGGLQVQKDGIWYTVPSKPHTLVVNLGDSMEILNNGIFKSPVHRVVTNAEKERLSLAMFYGVEGQKVLEPAAALLGEERPARYRKIKAADYIVGLRQGIARGNRFIETLKI
modifications: Coix lacryma-jobi
- % Injury [1, 3]: 53%

B5: ANDge.TDO: TDO homolog from Andropogon gerardii, SEQ ID NO:12 (protein, listed as Andropogon gerardii)
chain: MASSSWRVPTPVQELAAGVVEPPSQFVLQEQDRPESLLLAADMPEPIPVIDLSRLSAADEASKLQSALQTWGLFLVTNHGIEASLMDEVMAASRDFFHQPLQEKQKYSNLIGGKRFQMEGYGNDMVTSQDQILDWQDRLQLRVEPEDERNLAYWPKHPDSFRDLLHEYASKTKKVRDNLLRAMGKILELGDDYFISQIGEKASAVARFNYYPPCPRPELVFGIKPHSDGGAVTILLVDNDVGGLQVQKDGIWYTVPSKPHTLVVNLADSMEIMNNGIFKSPVHRVVTNAEKERLSLAMFYGVEGQKMLEPAAGLLGEDRPARYRKIKAADYIVGLRQGIAKGQRFIETLKI
- % Injury [1, 3]: 55%

B6: TDO_6: Os.TDO variant, SEQ ID NO:38, G242S-P256E relative to D08 (protein)
chain: MADESWRAPALVQELAAKGVEEPPSRYLLREQDRPDVKLVAAELPEPIPVVDLGRLDGAEEATKLRVALQNWGFFLLTNHGIEASLMDDVMNLSREFFNQPIERKQKFSNLIDGKHFQIEGYGTDRVVTQDQVLDWSDRLHLRVEPKEEQDLAFWPDHPESFRDVLHKYASGCKRIRDDIIQAMAKLLELDEDYFLDRFNEAPTFARFNYYPPCPRPDLVFGIRPHSDGGLLTILLVDKDVSGLQVQRDGKWSNVEATPHTLLINLGDTMEVMSNGIFKSPVHRVVTNAEKERISLAMLYSVNDEKDIEPAAGLLDENRPARYRKVSVEEFRAGIFGKFSRGERYIDSLRI
modifications: TDO variant sequence
- Crop Injury (%), 210 g/ha (2X) Mesotrione (transgenic cotton plants; Under 80° F.): 0%
- Crop Injury (%), 840 g/ha (8X) Mesotrione (transgenic cotton plants; Under 80° F.): 0%
- Crop Injury (%), 210 g/ha (2X) Mesotrione (transgenic cotton plants; Under 100° F.): 0%
- Crop Injury (%), 840 g/ha (8X) Mesotrione (transgenic cotton plants; Under 100° F.): 0%
- injury rates relative to Os.TDO controls (transgenic cotton plants; cotton at the higher temperature): trending even lower than the Os.TDO controls
- R0 % Injury [2]: 31%

B7: TDO_7: Os.TDO variant, SEQ ID NO:40, G242S-S274C relative to D08 (protein)
chain: B6 chain with E256P, S274C
modifications: TDO variant sequence
- R0 % Injury [2]: 32%

B8: TDO_8: Os.TDO variant, SEQ ID NO:42, Q32K-I48L-V133I-G242S-P256E relative to D08 (protein)
chain: B6 chain with Q32K, I48L, V133I
modifications: TDO variant sequence
- Crop Injury (%), 210 g/ha (2X) Mesotrione (transgenic cotton plants; Under 80° F.): 0.25%
- Crop Injury (%), 840 g/ha (8X) Mesotrione (transgenic cotton plants; Under 80° F.): 0%
- Crop Injury (%), 210 g/ha (2X) Mesotrione (transgenic cotton plants; Under 100° F.): 0.27%
- Crop Injury (%), 840 g/ha (8X) Mesotrione (transgenic cotton plants; Under 100° F.): 0%
- R0 % Injury [2]: 31%

B9: TDO_4: Os.TDO variant, SEQ ID NO:34, H116N-G242S relative to D08 (protein)
chain: B6 chain with H116N, E256P
modifications: TDO variant sequence
- R0 % Injury [2]: 32%

B10: TDO_1: Os.TDO variant, SEQ ID NO:28, P35S-H116N relative to D08 (protein)
chain: B6 chain with P35S, H116N, S242G, E256P
modifications: TDO variant sequence
- R0 % Injury [2]: 30%

B11: TDO_5: Os.TDO variant, SEQ ID NO:36, E120Q-G242S relative to D08 (protein)
chain: B6 chain with E120Q, E256P
modifications: TDO variant sequence
- R0 % Injury [2]: 30%

B12: TDO_3: Os.TDO variant, SEQ ID NO:32, P35S-G242S relative to D08 (protein)
chain: B6 chain with P35S, E256P
modifications: TDO variant sequence
- R0 % Injury [2]: 35%
